# According to publication PMC10058814, “Identification of a Thermostable Levansucrase from Pseudomonas orientalis That Allows Unique Product Specificity at Different Temperatures” (Polymers, 2023):
# Substrate: OC[C@H]1O[C@@](CO)(O[C@H]2O[C@H](CO)[C@@H](O)[C@H](O)[C@H]2O)[C@@H](O)[C@@H]1O
# Assay: kinetics of glucose and fructose release; nonlinear Michaelis-Menten fit
# Type: biochemical, Celerinatantimonas diazotrophica
# Details: hydrolysis reaction; assay conditions for Cedi-LS not stated separately
# Text: kinetics of glucose and fructose release; nonlinear Michaelis-Menten fit on Cedi-LS
protein,measurement,value
"Cedi-LS (Celerinatantimonas diazotrophica) (protein, recombinant levansucrase from the authors' earlier work; construct not described here) MTLQDKVMTTAWSRADALKVHADDPTTTQPEVSISFPTMDENLFIWDTLPLRTLDGSIVSVDGWSVIFTLTAIKDPETYKNADGSYDITTDWENRHGRARIYYWYAKDSKNWILGGRVMREGVSPTTREWAGTPILLNDQGDIELYYTCVTPGATIAKVRGKITTTENAVELSEFDHVTELFSADGFYYQTEEQNQFWNFRDPSPFIDPKDGRLYMVFEGNVAGNRGSHEITTTDMGDVPPGYSDVGGARYQAGCIGLAVATDTDGNNWQLLPPLITAVGVNDQTERPHFVFKDGKYYLFTISHKYTYADGLTGPDGVYGFVSDSLFGPYQPLNGSGLVLGNPSSQPFQTYSHCVMPNGLVTSFIDSVPSTSDDDYDGDYRIGGTEAPTVQIKLEGNQTFMVKEFDYGFIPPMKNIVLQ",Km,57 ± 2 mM
same,kcat,332 ± 22 s⁻¹
same,kcat/Km,5800 M⁻¹ s⁻¹
